The chains are these.
B1: COV2-2143 IgG (antibody, V domains shown)
VH: EVQLVESGGGLVQPGGSLRLSCAASGFTVSSNYMSWVRQAPGKGLEWVSVIYSAGSTYYADSVKGRFSISRDKSKNTLYLQMNSLRAEDTAVYYCAKEGGSGSLRYYYYGMDVWGQGTTVTVSS
VL: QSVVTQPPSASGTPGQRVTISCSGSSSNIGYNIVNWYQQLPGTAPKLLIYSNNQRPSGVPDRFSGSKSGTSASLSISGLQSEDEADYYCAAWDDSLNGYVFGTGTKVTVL
B2: COVA2-14 IgG (antibody, V domains shown)
VH: QVQLVQSGAEVKKPGSSVKVSCKASGGTFSSYAIIWVRQAPGQGLEWMGGIIPIFGTANYAQKFQGRVTITTDESTSTAYMELSSLRSEDTAVYYCARVRYYDSSGYYEDYWGQGTLVTVSS
VL: EIVLTQSPATLSLSPGERATLSCRASQSVSSYLAWYQQEPGQAPRLLIYDASNRATGIPARFSGSGSGTDFTLTISSLEPEDFAVYYCQQRSNWPPMYTFGQGTKVEIK
B3: COV2-2449 IgG (antibody, V domains shown)
VH: QVQLVESGGGVVQPGRSLRLSCATSGFTFSSFALHWVRQAPGKGLEWVTVISDDGNNKYYVDSVKGRFTISRDNSKNTLFLQMNSLRVEDTAIYYCARASYNSNWSIGEYFRDWGQGTLVTVSS
VL: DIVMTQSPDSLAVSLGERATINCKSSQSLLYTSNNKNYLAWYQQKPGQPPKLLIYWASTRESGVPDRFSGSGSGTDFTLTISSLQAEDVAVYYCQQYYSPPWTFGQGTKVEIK
B4: COVA2-18 IgG (antibody, V domains shown)
VH: EVQLVQSGAEVKKPGSSVKVSCKASGGTFSSYAISWVRQAPGQGLEWMGGIIPIFGTTNYAQKFQGRVTITTDESTSTAYMELSSLRSEDTAVYYCARVYSYDSSGYYLEYWGQGTRVTVSS
VL: EIVLTQSPATLSLSPGERATLSCRASQSVSSYLAWYQQKPGQAPRLLIYDASNRATGIPARFSGSGSGTDFTLTISSLEPEDFAVYYCQQRSNWPPSITFGQGTRLEIK
B5: CV27 IgG (antibody, V domains shown)
VH: QVQLVESGGGVVQPGRSLRLSCAASGFTFSSYAMHWVRQAPGKGLEWVALISYDGSNKYYADSVKGRFTISRDNSKNTLYLQMNSLRAEDTAVYYCARSFGGSYYYGMDVWGQGTTVTVSS
VL: QSALTQPASVSGSPGQSITISCTGTSSDVGGYNYVSWYQQHPGKAPKLMIYDVSNRPSGVSNRFSGSKSGNTASLTISGLQAEDEADYYCSSYTSSSTPYVFGTGTKVTVL
B6: COV2-2147 IgG (antibody, V domains shown)
VH: QVQLAESGGGVVQPGRSLRLSCAASGFTFSSYAMHWVRQAPGKGLEWVAVISYDGSNKYYADSVKGRFTISRDNSKNTLYLQMNSLRAEDTAVYYCARSTSGSYYYGMDVWGQGTTVTVSS
VL: QSALTQPASVSGSPGQSITISCTGTSSDVGDYNYVSWYQQHPGKAPKLMIYDVSNRPSGVSNRFSGSKSGNTASLTISGLQAEDEAEYYCSSYTSSSTLLYVFGTGTKVTVL

The target of the first test is T1, SARS-CoV-1 spike protein (FL-GCN4-Avi-His, 2P, biotinylated trimer) (SARS-CoV (SARS-CoV-1), strain of …, UniProt P59594, stabilised, biotin on the Avi tag). Kind of test: ELISA. As to conditions: both partners purified. In general terms: In an ELISA, binding on a coated surface is turned into a signal by an enzyme label.
Consider B1, for which the binding result was “binds”.
Consider B2, for which the binding result is recorded as “binds”.
Turning to B3, the binding result was “binds”.

The next test deals with T1, SARS-CoV-1 spike protein …. Kind of test: BLI. To be noted: both partners purified.
For B4, the binding result is “binds”.
With B5, the binding result is “binds”.
Take B6: the binding result is “binds”.
